The values that follow come from US20190300620A1.

This test concerns the target CD46 on target cells (LNCAP-C4-B2 and other prostate cancer cell lines) (UniProt P15529). Nature of the test: cell-based or functional assay.
Chain of UniProt P15529 (P15529 35-392 limits assumed): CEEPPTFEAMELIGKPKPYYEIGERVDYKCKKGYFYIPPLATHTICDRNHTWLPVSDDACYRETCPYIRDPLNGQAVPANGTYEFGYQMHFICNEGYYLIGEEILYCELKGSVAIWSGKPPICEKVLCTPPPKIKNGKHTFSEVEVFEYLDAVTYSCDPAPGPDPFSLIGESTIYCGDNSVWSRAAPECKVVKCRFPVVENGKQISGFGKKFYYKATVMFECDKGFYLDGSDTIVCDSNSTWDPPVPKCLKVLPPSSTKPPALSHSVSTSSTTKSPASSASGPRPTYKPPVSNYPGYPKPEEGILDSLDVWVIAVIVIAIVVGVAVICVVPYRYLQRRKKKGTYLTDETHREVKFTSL

With “anti-CD46 CAR (YS5FL-scFv in a second generation lentivirus CAR containing CD28 and CD3zeta), on transduced human T cells”, the killing rate of LNCAP-C4-B2 target cells (real time cytotoxicity assay, impedance, effector:target 10:1) was over 99%.
